Measured values: patent US20240026407A1, “MODIFICATION OF SAPONINS” (GLAXOSMITHKLINE BIOLOGICALS SA, priority 2020, published 2024)

Legend:
[1] = Example 9: screening of rhamnosidase variants for derhamnosylation of saponins in crude bark extract; format: biochemical, Quillaja saponaria; conditions: R5 round: 35 deg C, 18 h, lysate 0.0625% v/v, CBE 75% v/v, 100 mM Sodium acetate pH 5.8
Experimental: Libraries of genetic variants encoding mutations in the wild type Kribbella flavida rhamnosidase (SEQ ID No. 1017) were prepared using molecular biology techniques, enzymes were prepared linked to a C-terminally located His-tag. Single monoclonal colonies were grown in 400 ul of expression medium and protein expressed. Cell pellets were lysed in 200 ul of the relevant buffer (Table 17).
Lysate was diluted appropriately in the relevant buffer to allow a lysate loading of the indicated % loading (1% loading corresponds to use of 2 ul original lysate in a 200 ul reaction).
Crude bark extract (CBE) obtained by aqueous extraction of Quillaja saponaria and containing at least 2.80 mg/ml QS-21 (by HPLC-UV) was adjusted to pH 6 by dropwise addition of 2M NaOH with stirring. The relevant concentration of the relevant glucosidase was added. The appropriate relative volume of pH 6 CBE (160 ul (for 80%) or 150 ul (for 75%)) was added to each well of the reaction plate. The reaction plate was sealed and incubated at the relevant temperature and time.
The reaction plate was quenched by adding 200 uL of MeCN (2% AcOH, 1 mg/mL hexanophenone) to each well of the plates. The quenched reaction plate was re-sealed and incubated at 20 deg C. with shaking for 10 min. The reaction plate was then centrifuged (10 min, 4 degC).
200 uL was transferred from each well of the quenched plate to the corresponding wells of a fresh 96 well plate and sealed. The plate was analysed by UV HPLC with the method described in Example 4.
Three key peaks of interest are apparent using this chromatography: Left Peak (retention time approximately 2.30-2.35 min) comprising mainly QS-17 family components; Middle Peak (retention time approximately 2.37-2.42 min) comprising mainly QS-18 family components and desglucosyl-QS-17 family components; and Right Peak (retention time approximately 2.44-2.50 min) comprising mainly QS-21 family components. Peak identity was supported by MS/MS.
Enzyme activity is calculated as the % conversion of the Left Peak present in the crude bark extract: […]

[2] = Example 10: derhamnosylation of saponins in crude bark extract (50%) using WT and engineered rhamnosidases R1 to R5; format: biochemical, Quillaja saponaria; conditions: 50% CBE, 35 degC; for % Right Peak: starting CBE 26; for % Left Peak: starting CBE 30; for % Middle Peak: starting CBE 44
Experimental: Lyophilised powders from clarified cell lysate expressing glucosidases (from Example 8 WT glucosidase and engineered glucosidase polypeptides G1 to G5) and rhamnosidases (from Example 9 WT rhamnosidase and engineered rhamnosidase polypeptides R1 to R5) were dissolved in 200 mM sodium acetate aqueous solution at pH 5.8 to prepare the enzyme solutions at 4 fold the final reaction concentration as shown in Tables 19 and 20.
Each rhamnosidase solution was combined with an equal volume of 200 mM sodium acetate aqueous solution at pH 5.8 and separately with an equal volume of 200 mM sodium acetate aqueous solution at pH 5.8 containing 2 mg/ml glucosidase G5. This is a sufficient loading of glucosidase to effect complete hydrolysis of the relevant glucose moiety within 4 hours.
CBE was adjusted to pH of 6.0 to 6.2 with 2M sodium hydroxide and an equal volume added to the enzyme solution to prepare the reaction mix (i.e. 50% CBE concentration in reaction mix) and the concentration of glucosidase and/or rhamnosidase is shown in Tables 19 and 20. The reaction mix was heated to 35 degC for the time indicated in Tables 19 and 20, after which the reaction was quenched by addition of an equal volume of MeCN containing 2% acetic acid and shaken at room temperature for 10 mins prior to centrifugation (10 min, 4 degC) to remove particulates. Samples were analysed by UV HPLC using method of Experiment 4-4.
The change in composition of the Left, Middle and Right peaks is shown in Tables 19 and 20. The composition changes by the action of the enzymes depending on the presence or absence of the partner enzyme. The extent of reaction is proportional to the enzyme concentration and the reaction time under these conditions. The tables show data for enzyme concentrations and the reaction times providing for equivalent extents of reaction. The improvement resulting from the mutations introduced for each variant is equal to the fold change in enzyme concentration×time (i.e. fold improvement=(enzyme concentration×time) for preceding variant÷(enzyme concentration×time) for later variant). A cumulative fold improvement over the original enzyme variant is calculated by the product of the individual fold improvements.

[3] = rhamnosidase 0.16 mg/ml, no glucosidase, 7 h
[4] = rhamnosidase 0.31 mg/ml + glucosidase G5 0.5 mg/ml, 4 h

B1: Variant R5: engineered rhamnosidase polypeptide, variant of Kribbella flavida rhamnosidase SEQ ID No. 1017 (protein)
chain: MSFPAAPARLRFEHRTDPGPVLGIGTATPRLSWQVPTAPDDYRQAGYEVEIARGDAAPEQYTVDSADQVLVPWPGTPLAARESATVRVRVRGDGDWSQWSDPATVEAGLLSADDWTARFVSPRENAGHEAPAPLIGGVIDLPPDIAQARLYATAHGIYEPTLNGTRVGDEQLAPGWTAYEQRLRYQTYDVTDLVAPGENRLELLVGNGWYRGRMSFHDGHSLYGDRLAVLAQLEVTTATGEVKVLASDGTWTTRETNVLADDLYDGQHVDLRRTLGEPGPVDVLDADLSLLVAPDGPPVRVTDVLPAKAVTTSPAGKTLVDFGQNVVGRLRLRVRGGAAGDEIVLRHAEVLEDGELCVRPLRTAKATDSFVLAGPDEVTLEPTLTFHGFRYAEITGVPDLRAEDVEAVVVGSDLRRTGWFESSHPLLDRFHENVVWGMRGNFLDVPTDCPQRDERLGWTGDIQVFSPTASFLFDTAGFLTNWLADLIAEQHKDGSVPFVVPDVLRQPSPATAAWGDAATIVPWVLYERTGDAGLLARQLPSMRAWVDRMAGLAGDDLLWVGGFQFGDWLDPTAPPDDPFRAKADPDVLATAHLARSAEVVALAAEVVGAGELAREYAELAARVRQAFAAEYTTASGRVLSDAATNYALALQWALLPTEAQRKRAGERLADLVRTAGFRISTGFVGTPLMCDALADSGHPDLAYRLLLETGCPSWLYAVTMDATTVWERWDSMLPDGSINPGQMTSFNHYALGAVADWMHRRVAGLAPGDPGYRRIVVDPLFTAHLTKASARHLTPYGEAAVAWSRSGGRVRLEVTVPVGARARVAVPGESAPVEVGHGTHEWTADDVYGETPPLPADATIRQLIDHEPSWTTLAAAATRTGIVADDAELAGRLERYLDHPATELVDAVSPRGFSPSAEALHAELDSVLGR
modifications: Seq ID No. 1017 with mutations A143P, L214M, G215S, G218D, K219G, G357C, G508S, G634A, A690C, Q921H
% conversion (Right peak/Left Peak) (−neg control) [1]: 2.62% | Cumulative FIOP from WT ([1]; estimate): 28.7 | Right Peak % ([1]; negative control 26.23): 26.93% | Left Peak % ([1]; negative control 28.76): 26.59% | Middle Peak % ([1]; negative control 45.00): 46.48% | % conversion (Right peak/Left Peak) ([1]; negative control 47.70): 50.32% | FIOP (% area increase variant/pos control) ([1]; positive control R4): 1.3 | time to complete hydrolysis of the relevant rhamnose moiety ([2]; 2 mg/ml rhamnosidase R5 solution (before mixing with glucosidase solution and CBE)): ≤ 4 h | cumulative fold improvement over WT rhamnosidase ([2]; from enzyme concentration x time for equivalent extent of reaction): approximately 30 fold | % change in Left Peak [2, 3]: −45% | % change in Middle Peak [2, 3]: 27% | % change in Right Peak [2, 3]: 106% | Cumulative Fold improvement in primary enzyme loading × time [2, 3]: 31 | Fold improvement in primary enzyme loading × time [2, 3]: 1.9 | % Right Peak [2, 3]: 28% | % Left Peak [2, 3]: 17% | % Middle Peak [2, 3]: 56% | % change in Left Peak [2, 4]: −34% | % change in Middle Peak [2, 4]: −93% | % change in Right Peak [2, 4]: 296% | Cumulative Fold improvement in primary enzyme loading × time [2, 4]: 27 | Fold improvement in primary enzyme loading × time [2, 4]: 1.7 | % Right Peak [2, 4]: 77% | % Left Peak [2, 4]: 20% | % Middle Peak [2, 4]: 3%
